Measurements published in the supplement of paper PMC9170038.

Tested on: MS2 coat protein
Experiment: apparent KD of MS2 coat protein; higher = weaker reporter binding
Settings: Eterna round: R107
Protocol: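 RNA-MaP round R107: designed RNA switches with theophylline, tryptophan, arginine or FMN aptamers are transcribed on-chip within common flanks. They are titrated with SNAP-549-labelled MS2 coat protein in RNA-MaP buffer (100 mM Tris pH 7.5, 80 mM KCl, 4 mM MgCl2), without ligand or with the indicated ligand. Median apparent KD per design.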

[1] = input ligand: theophylline 20 uM
[2] = input ligand: tryptophan 2.4 mM
[3] = input ligand: theophylline 2 mM

Sequence	apparent KD of MS2 coat protein (input ligand: arginine 13.2 mM)	apparent KD of MS2 coat protein [1]	apparent KD of MS2 coat protein [2]	apparent KD of MS2 coat protein (input ligand: none)	apparent KD of MS2 coat protein [3]
AGACAUGAGGAUCACCCAUGUAGCAUGGAUACCAGAUCCAGAUUUAUCCCUUGGCAGCUGUGGUAAAGUGAUGGAUUGCUCCUAG [Exclusion - Theophylline A (Freestyle 7)]	38.1 nM	55.8 nM	36.9 nM		
AGACAUGAGGAUCACCCAUGUAGCAUGGAUACCAGAUGUAGAUUUGUCCCUUGGCAGCUGUGGUAAAGUGAUGCAUUGCUCCUAG [Exclusion - Theophylline A (Freestyle 4)]	34.4 nM	61.5 nM	33.3 nM		
AGACAUGAGGAUCACCCAUGUAGUACGGAUACCAGAUCCAGAUUUAUCCCUUGGCAGCUGUGGUACAGCGUUGCAACGCUCCUAG [Exclusion - Theophylline A (Freestyle 15)]	13.6 nM	22.1 nM	15.4 nM		
AGACAUGUAAGAUAAUUGACUUUUACAGAUACCAGACUGUCUAAUGUCCCUUGGCAGCUGCAUUACAUGAGGAUCACCCAUGUUA [JR_ExcTheophyA_Sub011]	15.9 nM	20.3 nM	17.5 nM		
AGACAUGUAGGAUAAUUGACUAUUACAGAUACCAGACUGUCUAAUGUCCCUUGGCAGCUGCAUUACAUGAGGAUCACCCAUGUUA [JR_ExcTheophyA_Sub012]	16.5 nM	22.7 nM	20.4 nM		
AGACGAGAAGAGGUUUACCCAUGUACAGAAGGAGCGUCGUUGACGACAGGUAGGUCGCUGAAAACAUGAGGAUCACCCAUGUUGA [#05 Exclusion - Arginine A]	62.9 nM	35.3 nM	31.7 nM	31.1 nM	39.7 nM
AGAGGUGCAACAGAUACCAGUCUACCGUACCUCAGAGAACAUGAGGAUCACCCAUGUAUAGACCCUUGGCAGCUGAUGUUAUUCA [Theo B Ex t3]	25.7 nM	36.7 nM	22.4 nM		
AGAGUUAGACAAAAGUCUAGCUCACCAGAAGGAGCGUCCGAAAGGACAGGUAGGUCGCUGGUACACGAGGAUCACCCGUGUUCCU [ArgAS 16 #OpenEnded #AlternativeMS2]	27.6 nM	40.4 nM	36.8 nM	38.6 nM	50.3 nM
AGAGUUAGACAAAAGUCUAGCUCACCAGAAGGAGCGUCCGAAAGGACAGGUAGGUCGCUGGUACCUGAGGAUCACCCGGGUUCCU [ArgAS 17 #OpenEnded #AlternativeMS2]	134 nM	172 nM	80.5 nM	282 nM	244 nM
AGAUCGCUGACCGCGGGAGAUGCGCAGGAUACCAGCCUAAUGUCCGGCCCUUGGCAGCCUGUAACAUGAGGAUCACCCAUGUGAA [theeternabot_exclusion_MS2_Theo_A_29]	15 nM	20.9 nM	18.1 nM		
AGAUCUUUCGAAAGAAGGAUAAUGGCUGAUACCAGAGACGAAAGUCUCCCUUGGCAGCAGUGCCAACAUGAGGAUCACCCAUGUA [Theophylline A 14]	110 nM	164 nM	178 nM		
AGAUCUUUCGAAAGAAGGAUCUUGGCUGAUACCAGAGACGAAAGUCUCCCUUGGCAGCAGUGCCAACAUGAGGAUCACCCAUGUA [Theophylline A 13]	35 nM	49.9 nM	42.9 nM		
AGAUGAGUCACGGCCGCCACUCACUUCAGGUUCACCCUUGGUUAACAUGAGGAUCACCCAUGUGGGAGGACCGGGUGAUGAGCAU [XTryp B #3]	11.8 nM	23.8 nM			25.3 nM
AGAUGUAGCGGAAGGAGCGACAUGAGGAUCACCCAUGUCUCCCGUUAUGGGAGUUCCUUAGGUCAGGUAGGUCGCCGUUACGUCA [Omei Arg B SS B v1]	105 nM	143 nM	105 nM	146 nM	226 nM
AGAUGUAGCGGAAGGAGCGACAUGAGGAUCACCCAUGUCUCCCGUUGUGGGAGUUCCUUAGGUCAGGUAGGUCGCCGUUACGUCA [Omei Arg B SS B v2]	121 nM	153 nM	132 nM	230 nM	259 nM
AGAUUAAAGAGUGAUACCAGACUACAUGAGGAUCACCCAUGUUACAUUUGAGUAGCUUUAGUCCCUUGGCAGCACUUUAUGUACA [JR_Nu_ExcTheophyB_Sub023]	45.4 nM	42.9 nM	54.2 nM		
AGAUUCGACACGGCCGCCACUCGUGCCGGAUUACCGAGUGUCGAACAUGAGGAUCACCCAUGUACGAGGACCGGGUGUUGAGUCU [XTryp B #17]	35.1 nM	53.9 nM			48.1 nM
AGAUUCGACACGGCCGCCACUUGGAGUGGCUGCUAGCAUGUUACACAUGAGGAUCACCCAUGUCUAAGGACCGGGUGUUGAGUCU [XTryp B #24]	30.7 nM	79.2 nM			63.5 nM

Sequence	apparent KD of MS2 coat protein (input ligand: arginine 13.2 mM)	apparent KD of MS2 coat protein [1]	apparent KD of MS2 coat protein [2]	apparent KD of MS2 coat protein (input ligand: none)	apparent KD of MS2 coat protein [3]
AGAUUUAUUCUGACCGGGCUCAUUCCUGAAGGAGCGCAGAACAAUGCAGGUAGGUCGCAGGACAUGAGGAUCACCCAUGUCAGGC [Inmainzais]	15.5 nM	30.2 nM	24.6 nM	22.1 nM	27.2 nM
AGCAACAAGUCGGCCGCCACUCAUAUUACAUGAGGAUCACCCAUGUUUACAUCAAGGUCAUAAUAGAGGACCGGGACAGUUGCAU [JR_SSTryptoB_Sub017]	24.5 nM	39.3 nM			41.5 nM
AGCACUGUGACGGCCGCCACUACAUAAGUUGGGUGGUCAGGUUCAUUACAUGAGGAUCACCCAUGUAGGACCGGGUCUCAGUGCA [Omei Trp Exc B A v9]	9.36 nM	15.7 nM	10.3 nM	11.2 nM	12.8 nM
AGCAUUGUAACAGAUACCAGACUUUUAAUGCCUCUAAUUACAUGAGGAUCACCCAUGUUUGUCCCUUGGCAGCUGUUAUGAUGCA [JR_ExcTheophyB_Sub009]	84.1 nM	174 nM	125 nM		
AGCCAUGGAAACAUGGCGGCGGCAUGAGCGCGAGGACCGGUACGGCCGCCACUCGGGCGACAUGAGGAUCACCCAUGUUCCUCAA [ETA NP+V+V2 #21]	27.2 nM	54.1 nM	340 nM	27.5 nM	38.2 nM
AGCCCGUGAGCGGCCGCCACUGGAGGCUUUGCGCGACAUGAGGAUCACCCAUGUGUGCCCGGCGUUAGGACCGGGCUCACGUGGU [#1 Same State - Tryptophan B Attempt #20 (HarryS)]	43.8 nM	302 nM	110 nM	182 nM	288 nM
AGCCCUGUGCUAGAUACCAGCUACAUGAGGAUCACCCAUGUGCGUCAGAAAUGACUGUGUAGCCCUUGGCAGCUACUCGCAUGUA [Exclusion - Theophylline B (Freestyle 6)]	13 nM	20.2 nM	13.5 nM		
AGCCCUGUGCUAGAUACCAGCUACAUGAGGAUCACCCAUGUGCGUCAGGACUGACUGUGUAGCCCUUGGCAGCUACUCGCAUGUA [Exclusion - Theophylline B (Freestyle 5)]	14.4 nM	20 nM	14.5 nM		
AGCCGAAACCUUGAUACCAGAUCAUGCUGCACAUGAGGAUCACCCAUGUCGUUAAACAUGGUCCCUUGGCAGCAAGUUAGGAUCU [Usustiusso]	114 nM	161 nM	103 nM		
AGCCGAACCACGGCCGCCACUGUAGACGUGACGAAAGUCGCGUCAACAUGAGGAUCACCCAUGUACAGGACCGGGUGGUCCGGCA [Omei Trp B SS A v2]	9.09 nM	11.2 nM	6.75 nM	8.68 nM	8.09 nM
AGCCGCGUUCUUUCUUUCUUUCUAGCGGCACGAGGACCGGUACGGCCGCCACUCGAAGACAUGAGGAUCACCCAUGUAGUGGGUA [The Second Ring]	47.4 nM	142 nM	206 nM	123 nM	109 nM
AGCCGGAUUACGGCCGCCACUGUAGACGUGACGAAAGUCGCGUCAACAUGAGGAUCACCCAUGUACAGGACCGGGUGGUCAGGCG [Omei Tryp B SS A v4]	108 nM	432 nM			464 nM
AGCCUCAUACAUGAGGAUCACCCAUGUGAUACCAGUCAGGAAACUGACCCUUGGCAGCGCAUGAGGAUCACCCAUGCGCGAGGCA [Omei Theo A Exc A v1]	40.1 nM	123 nM	36.8 nM		
AGCCUCAUACAUGAGGAUCACCCAUGUGAUACCAGUCAGGAAACUGACCCUUGGCAGCGCAUGAGGAUCACCCAUGUGCGAGGCA [Omei Theo A Exc A v2]	25.1 nM	171 nM	32.9 nM		
AGCGACAUGAGGAUCACCCAUGUACAUUCCCGAGGACCGGUACGGCCGCCACUCGAUGGAAGUGGUAGCAGCUUGGAUGGGCCUA [theeternabot_sameState_MS2_Trp_A_23]	14.5 nM	20 nM			17.8 nM
AGCGACAUGCAUGAUACCAGCUACAUGAGGAUCACCCAUGUACGUCAGUAAUGACUGUGUAGCCCUUGGCAGCAUAGAGCAUGUC [Exclusion - Theophylline B (Freestyle 16)]	14.3 nM	28.8 nM	17.3 nM		
AGCGACAUGCGUGAUACCAGCUACAUGAGGAUCACCCAUGUAAGUAGGAAACUACUGUGUAGCCCUUGGCAGCACAGUGCAUGUC [Exclusion - Theophylline B (Freestyle 23)]	10.3 nM	14 nM	10.8 nM		
AGCGACAUGCGUGAUACCAGCUACAUGAGGAUCACCCAUGUAAGUAGGAAACUACUGUGUAGCCCUUGGCAGCAUAGUGCAUGUC [Exclusion - Theophylline B (Freestyle 22)]	13.4 nM	23.5 nM	15 nM		
